Where a chain is given by its changes, count along the chain named.

The results in this text go back to article PMC3159454.

One data set concerns the target T1, Elk-ΔA (UniProt P19419 1-253).
T1 sequence: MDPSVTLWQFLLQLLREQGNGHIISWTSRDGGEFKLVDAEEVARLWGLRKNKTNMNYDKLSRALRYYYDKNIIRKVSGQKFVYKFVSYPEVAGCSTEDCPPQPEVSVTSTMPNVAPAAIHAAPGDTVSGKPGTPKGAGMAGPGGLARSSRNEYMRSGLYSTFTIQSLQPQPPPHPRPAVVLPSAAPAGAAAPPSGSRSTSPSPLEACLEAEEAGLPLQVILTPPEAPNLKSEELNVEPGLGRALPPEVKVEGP
Description: EMSA. Background: A gel shift assay detects complexes by their altered migration in electrophoresis.

Data set [1] concerns the target T2, Elk-ets (HA-tagged ETS domain) (UniProt P19419 5-86).
T2 sequence: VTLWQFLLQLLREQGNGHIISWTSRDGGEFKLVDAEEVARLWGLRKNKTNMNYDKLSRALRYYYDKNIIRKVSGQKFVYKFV
Description: EMSA.

Data set [2] addresses PU.1-ets (HA-tagged ETS domain) (UniProt P17947 170-253). As to the kind of experiment: EMSA.
Data set [3] addresses T3, ets-DM (HA-Elk-ets DNA-binding mutant) (UniProt P19419 5-86, R65A;Y66F).
T3 sequence: T2 sequence with R61A, Y62F
As to the kind of experiment: native gel EMSA.

The target in data set [4] is T2, Elk-ets (HA-tagged ETS domain). Description: native gel EMSA.

B1: E74 duplex (dsDNA)
DNA 1: CTAGAGCTGAATAACCGGAAGTAACTCAT
DNA 2: CTAGATGAGTTACTTCCGGTTATTCAGCT
With B1, the binding result with Elk-ΔA is “binds”; in data set [1] it was “binds”; in data set [2], “binds”; in data set [3], “no binding”.

B2: CON control duplex (dsDNA)
DNA 1: AGACCAACATGAATTACGACAGGCTCAGCCGGG
DNA 2: CCCGGCTGAGCCTGTCGTAATTCATGTTGGTCT
In the case of B2, in data set [4], the binding result is on record as “no binding”.
